Measured values published in US20040057952A1 (IMMUNOGEN, published 2004).

Target: T1, Muc16 on tumor cells (human, UniProt Q8WXI7 1-14507)
T1 construct: whole, on cells; Endogenous protein; also called CA125
Assay: flow cytometry on WISH cells

fold fluorescence shift at saturation binding against MJ-171: > 5 fold
B1: OC125 (antibody)
chain 1: QVQLQESGPELVKPGASVKISCKASGYTFTDYNMHWVKQSHGKSLEWIGYIYPYNGDTGYNQKFRNKASLTVDTSSSTAYMELRSLTSEDSAVYYWARSGGFWYFDVWGQGGTTVTVSS
chain 2: DIQMTQSPAILSASPGEKVTMTCRATPSVSYMHWYQQKPGSSPKPLIYTTSNLASGVPARFSGGGSGTSYSLTVSRVEVEDAATYYCQQWSRSPPTFGAGTKLEIK
